According to patent US20150297748A1 (Daiichi Sankyo, published 2015):

Columns and labels:
CD33 = CD33 (UniProt P20138 18-364, limits assumed); experiment: cell-based or functional assay
human B7-H3 variant 1 = biological target: T1, human B7-H3 variant 1 (human, UniProt Q5ZPR3 27-534); experiment: cell-based or functional assay
T1 sequence: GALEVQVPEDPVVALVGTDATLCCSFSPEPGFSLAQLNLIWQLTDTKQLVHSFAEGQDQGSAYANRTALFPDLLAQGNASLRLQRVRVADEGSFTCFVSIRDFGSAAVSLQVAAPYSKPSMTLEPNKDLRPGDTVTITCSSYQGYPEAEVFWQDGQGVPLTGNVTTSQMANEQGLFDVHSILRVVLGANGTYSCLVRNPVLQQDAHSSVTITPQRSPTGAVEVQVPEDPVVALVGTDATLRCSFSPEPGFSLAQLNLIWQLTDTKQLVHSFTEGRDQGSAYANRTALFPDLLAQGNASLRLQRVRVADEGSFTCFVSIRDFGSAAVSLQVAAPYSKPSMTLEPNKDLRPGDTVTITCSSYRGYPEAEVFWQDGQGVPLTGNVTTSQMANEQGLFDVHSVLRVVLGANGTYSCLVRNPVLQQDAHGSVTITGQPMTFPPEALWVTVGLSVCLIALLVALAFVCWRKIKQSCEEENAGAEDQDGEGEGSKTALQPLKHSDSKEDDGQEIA

Sequence of CD33 (P20138 18-364 limits assumed): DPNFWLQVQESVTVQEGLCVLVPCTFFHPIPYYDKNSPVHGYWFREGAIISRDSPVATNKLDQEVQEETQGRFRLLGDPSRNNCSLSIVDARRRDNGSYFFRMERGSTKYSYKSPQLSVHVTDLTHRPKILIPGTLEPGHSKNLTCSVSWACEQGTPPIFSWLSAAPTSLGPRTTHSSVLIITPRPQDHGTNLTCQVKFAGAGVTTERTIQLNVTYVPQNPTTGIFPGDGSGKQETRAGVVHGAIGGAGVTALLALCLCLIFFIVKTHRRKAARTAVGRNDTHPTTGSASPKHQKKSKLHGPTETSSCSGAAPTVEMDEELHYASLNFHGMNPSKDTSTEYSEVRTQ

B1: Antibody-drug conjugate (8) (antibody, V domains shown)
VH: EVQLVQSGAEVKKPGSSVKVSCKASGYTITDSNIHWVRQAPGQSLEWIGYIYPYNGGTDYNQKFKNRATLTVDNPTNTAYMELSSLRSEDTAFYYCVNGNPWLAYWGQGTLVTVSS
VL: DIQLTQSPSTLSASVGDRVTITCRASQSLDNYGIRFLTWFQQKPGKAPKLLMYAASNQGSGVPSRFSGSGSGTEFTLTISSLQPDDFATYYCQQTKEVPWSFGQGTKVEVKR
modifications: drug-linker 6-maleimidohexanoyl-GGFG-NH-(CH2)3-C(=O)-exatecan (compound of Process 3 of Example 2) on cysteines of the reduced hinge disulfide bonds; average 3.4 per antibody molecule; positions not given
CD33
  IC50, cytotoxic activity against the HL-60 cells: < 0.1 nM

B2: Antibody-drug conjugate (5) (antibody, human IgG1, kappa, V domains shown)
VH: QVQLVQSGAEVKKPGSSVKVSCKASGYTFTNYVMHWVRQAPGQGLEWMGYINPYNDDVKYNEKFKGRVTITADESTSTAYMELSSLRSEDTAVYYCARWGYYGSPLYYFDYWGQGTLVTVSS
VL: EIVLTQSPATLSLSPGERATLSCRASSRLIYMHWYQQKPGQAPRPLIYATSNLASGIPARFSGSGSGTDFTLTISSLEPEDFAVYYCQQWNSNPPTFGQGTKVEIKR
modifications: drug-linker 6-maleimidohexanoyl-GGFG-NH-(CH2)3-C(=O)-exatecan (compound of Process 3 of Example 2) on cysteines of the reduced hinge disulfide bonds; average 6.7 per antibody molecule; positions not given
Human B7-H3 variant 1
  IC50, cytotoxic activity against the CEM_V1-3.1-2 cells: < 0.1 nM

B3: Antibody-drug conjugate (52) (antibody, human IgG1, kappa, V domains shown)
VH: QVQLVQSGAEVKKPGSSVKVSCKASGYTFTNYVMHWVRQAPGQGLEWMGYINPYNDDVKYNEKFKGRVTITADESTSTAYMELSSLRSEDTAVYYCARWGYYGSPLYYFDYWGQGTLVTVSS
VL: EIVLTQSPATLSLSPGERATLSCRASSRLIYMHWYQQKPGQAPRPLIYATSNLASGIPARFSGSGSGTDFTLTISSLEPEDFAVYYCQQWNSNPPTFGQGTKVEIKR
modifications: drug-linker 6-maleimidohexanoyl-GGFG-NH-(CH2)5-C(=O)-exatecan (compound of Process 5 of Example 54) on cysteines of the reduced hinge disulfide bonds; average 3.1 per antibody molecule; positions not given
Human B7-H3 variant 1
  IC50, cytotoxic activity against the CEM_V1-3.1-2 cells: < 0.1 nM

B4: Antibody-drug conjugate (16) (antibody, human IgG1, kappa, V domains shown)
VH: QVQLVQSGAEVKKPGSSVKVSCKASGYTFTNYVMHWVRQAPGQGLEWMGYINPYNDDVKYNEKFKGRVTITADESTSTAYMELSSLRSEDTAVYYCARWGYYGSPLYYFDYWGQGTLVTVSS
VL: EIVLTQSPATLSLSPGERATLSCRASSRLIYMHWYQQKPGQAPRPLIYATSNLASGIPARFSGSGSGTDFTLTISSLEPEDFAVYYCQQWNSNPPTFGQGTKVEIKR
modifications: drug-linker 3-maleimidopropanoyl-NH-(CH2CH2O)2-CH2CH2-C(=O)-GGFG-NH-(CH2)3-C(=O)-exatecan (compound of Process 1 of Example 14) on cysteines of the reduced hinge disulfide bonds; average 6.5 per antibody molecule; positions not given
Human B7-H3 variant 1
  IC50, cytotoxic activity against the CEM_V1-3.1-2 cells: < 0.1 nM

B5: Antibody-drug conjugate (21) (antibody, human IgG1, kappa, V domains shown)
VH: QVQLVQSGAEVKKPGSSVKVSCKASGYTFTNYVMHWVRQAPGQGLEWMGYINPYNDDVKYNEKFKGRVTITADESTSTAYMELSSLRSEDTAVYYCARWGYYGSPLYYFDYWGQGTLVTVSS
VL: EIVLTQSPATLSLSPGERATLSCRASSRLIYMHWYQQKPGQAPRPLIYATSNLASGIPARFSGSGSGTDFTLTISSLEPEDFAVYYCQQWNSNPPTFGQGTKVEIKR
modifications: drug-linker 3-maleimidopropanoyl-NH-(CH2CH2O)2-CH2CH2-C(=O)-GGFG-NH-(CH2)3-C(=O)-exatecan (compound of Process 1 of Example 14) on cysteines of the reduced hinge disulfide bonds; average 5.5 per antibody molecule; positions not given
Human B7-H3 variant 1
  IC50, cytotoxic activity against the CEM_V1-3.1-2 cells: < 0.1 nM

B6: Antibody-drug conjugate (44) (antibody, human IgG1, kappa, V domains shown)
VH: QVQLVQSGAEVKKPGSSVKVSCKASGYTFTNYVMHWVRQAPGQGLEWMGYINPYNDDVKYNEKFKGRVTITADESTSTAYMELSSLRSEDTAVYYCARWGYYGSPLYYFDYWGQGTLVTVSS
VL: EIVLTQSPATLSLSPGERATLSCRASSRLIYMHWYQQKPGQAPRPLIYATSNLASGIPARFSGSGSGTDFTLTISSLEPEDFAVYYCQQWNSNPPTFGQGTKVEIKR
modifications: drug-linker 6-maleimidohexanoyl-GGFG-NH-CH2CH2-O-CH2-C(=O)-exatecan (compound of Process 3 of Example 43) on cysteines of the reduced hinge disulfide bonds; average 6.6 per antibody molecule; positions not given
Human B7-H3 variant 1
  IC50, cytotoxic activity against the CEM_V1-3.1-2 cells: < 0.1 nM

B7: Antibody-drug conjugate (54) (antibody, human IgG1, kappa, V domains shown)
VH: QVQLVQSGAEVKKPGSSVKVSCKASGYTFTNYVMHWVRQAPGQGLEWMGYINPYNDDVKYNEKFKGRVTITADESTSTAYMELSSLRSEDTAVYYCARWGYYGSPLYYFDYWGQGTLVTVSS
VL: EIVLTQSPATLSLSPGERATLSCRASSRLIYMHWYQQKPGQAPRPLIYATSNLASGIPARFSGSGSGTDFTLTISSLEPEDFAVYYCQQWNSNPPTFGQGTKVEIKR
modifications: drug-linker 6-maleimidohexanoyl-GGFG-NH-(CH2)5-C(=O)-exatecan (compound of Process 5 of Example 54) on cysteines of the reduced hinge disulfide bonds; average 3.0 per antibody molecule; positions not given
Human B7-H3 variant 1
  IC50, cytotoxic activity against the CEM_V1-3.1-2 cells: < 0.1 nM

B8: Antibody-drug conjugate (32) (antibody, human IgG1, kappa, V domains shown)
VH: QVQLVQSGAEVKKPGSSVKVSCKASGYTFTNYVMHWVRQAPGQGLEWMGYINPYNDDVKYNEKFKGRVTITADESTSTAYMELSSLRSEDTAVYYCARWGYYGSPLYYFDYWGQGTLVTVSS
VL: EIVLTQSPATLSLSPGERATLSCRASSRLIYMHWYQQKPGQAPRPLIYATSNLASGIPARFSGSGSGTDFTLTISSLEPEDFAVYYCQQWNSNPPTFGQGTKVEIKR
modifications: drug-linker from N-(bromoacetyl)-beta-alanyl-GGFG-NH-(CH2)3-C(=O)-exatecan (compound of Process 3 of Example 30) on cysteines of the reduced hinge disulfide bonds; average 6.0 per antibody molecule; positions not given
Human B7-H3 variant 1
  IC50, cytotoxic activity against the CEM_V1-3.1-2 cells: < 0.1 nM
